Series [1] concerns the molecule itself. As to the kind of experiment: crystal structure; RNase E (1-529) D303R, D346R co-crystallised with 5' monophosphorylated MicC-ompD fusion RNA (1:1 molar ratio); 3.0 Å, space group C2; open-state quaternary structure.
Series [2] concerns the molecule itself. The experiment in a line: crystal structure; RNase E (1-510) D303R, D346R co-crystallised with full-length sRNA RprA; 3.95 Å, space group P6(1); 0.1 M KCl, 0.01 M MgCl2, 0.05 M Tris-HCl pH 8.5, 30% PEG 400, 20°C; tetramer as a dimer of dimers.

B1: RNase E (1–529) D303R, D346R (domain or fragment)
chain: not shown
notes: Crystallised with a 5' monophosphorylated MicC-ompD fusion RNA; Prepared as in Callaghan et al., 2005; cloned in pET16; source: E. coli BL21(DE3), purified (nickel HiTrap Chelating, optional heparin or butyl Sepharose, gel filtration)
For B1, the binding result in series [1] is listed as “binds”.

B2: RNase E (1–510) D303R, D346R (domain or fragment)
chain: not shown
notes: Crystallised with full-length sRNA RprA; also called RNase E (1–511); source: E. coli BL21(DE3), purified (nickel HiTrap Chelating, optional heparin or butyl Sepharose, gel filtration)
Turning to B2, in series [2], the “stoichiometry N” value was determined as 4.

For the origin of these results see paper PMC6202311, “Substrate Recognition and Autoinhibition in the Central Ribonuclease RNase E” (Molecular Cell, 2018).
